Our source for the MAdCAM Octet Binding values is patent US20230235004A1.

The assay deals with recombinant mouse MAdCAM-1 (mouse) (UniProt Q61826). Briefly: Octet. (Biolayer interferometry detects binding as a change in optical thickness at a sensor tip.)
Chain of recombinant mouse MAdCAM-1 (mouse) (Q61826 22-364 limits assumed): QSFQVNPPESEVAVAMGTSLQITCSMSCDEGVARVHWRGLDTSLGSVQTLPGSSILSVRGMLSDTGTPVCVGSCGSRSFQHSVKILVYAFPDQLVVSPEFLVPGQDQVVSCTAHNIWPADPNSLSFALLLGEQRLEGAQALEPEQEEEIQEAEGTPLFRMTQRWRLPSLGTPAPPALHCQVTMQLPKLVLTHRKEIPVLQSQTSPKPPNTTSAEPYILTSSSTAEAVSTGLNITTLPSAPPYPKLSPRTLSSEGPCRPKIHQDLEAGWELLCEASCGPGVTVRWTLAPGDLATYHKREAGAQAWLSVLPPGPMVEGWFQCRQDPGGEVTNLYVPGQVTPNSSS

B1: MAdCAM antibody Table 1 clone 1 (scFv)
scFv: EVQLLESGGGLVQPGGSLRLSCAASGFTFSSYGMHWVRQAPGKGLEWVAVISDDGSDKYYADSVKGRFTISRDNSKNTLYLQMNSLRAEDTAVYYCTTSKYYYYYGMDVWGQGTTVTVSSGGGGSGGGGSGGGGSGGGGSDIQMTQSPSSLSASVGDRVTITCQASQDISKSLNWYQQKPGKAPKLLIYAASSLQSGVPSRFSGSGSGTDFTLTISSLQPEDFATYYCQQGYSTPLTFGGGTKVEIK
Turning to B1, the MAdCAM Octet Binding was found to be 0.16.
